# T1: human CD30 (human, UniProt P28908 19-595)
# T1 sequence (looked up): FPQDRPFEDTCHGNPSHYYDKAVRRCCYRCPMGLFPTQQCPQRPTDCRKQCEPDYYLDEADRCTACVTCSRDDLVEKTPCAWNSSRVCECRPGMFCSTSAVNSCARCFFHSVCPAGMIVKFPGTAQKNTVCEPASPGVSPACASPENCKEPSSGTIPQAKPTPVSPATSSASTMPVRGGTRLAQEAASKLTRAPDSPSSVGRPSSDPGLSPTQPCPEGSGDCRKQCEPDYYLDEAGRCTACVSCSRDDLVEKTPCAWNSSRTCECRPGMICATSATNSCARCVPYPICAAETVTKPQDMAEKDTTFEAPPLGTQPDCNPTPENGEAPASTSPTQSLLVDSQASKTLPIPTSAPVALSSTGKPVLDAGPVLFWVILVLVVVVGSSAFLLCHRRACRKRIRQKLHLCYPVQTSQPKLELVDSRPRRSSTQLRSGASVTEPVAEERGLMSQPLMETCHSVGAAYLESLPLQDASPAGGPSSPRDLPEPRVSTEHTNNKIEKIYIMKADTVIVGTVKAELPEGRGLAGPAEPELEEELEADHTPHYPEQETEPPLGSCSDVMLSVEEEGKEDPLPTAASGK
# T2: cynomolgus CD30 on PHA, Con A and rIL-2 activated cynomolgus peripheral blood mononuclear cells (cynomolgus, UniProt A0A2K5VW07 29-603)
# T2 construct: whole, on cells
# T2 sequence: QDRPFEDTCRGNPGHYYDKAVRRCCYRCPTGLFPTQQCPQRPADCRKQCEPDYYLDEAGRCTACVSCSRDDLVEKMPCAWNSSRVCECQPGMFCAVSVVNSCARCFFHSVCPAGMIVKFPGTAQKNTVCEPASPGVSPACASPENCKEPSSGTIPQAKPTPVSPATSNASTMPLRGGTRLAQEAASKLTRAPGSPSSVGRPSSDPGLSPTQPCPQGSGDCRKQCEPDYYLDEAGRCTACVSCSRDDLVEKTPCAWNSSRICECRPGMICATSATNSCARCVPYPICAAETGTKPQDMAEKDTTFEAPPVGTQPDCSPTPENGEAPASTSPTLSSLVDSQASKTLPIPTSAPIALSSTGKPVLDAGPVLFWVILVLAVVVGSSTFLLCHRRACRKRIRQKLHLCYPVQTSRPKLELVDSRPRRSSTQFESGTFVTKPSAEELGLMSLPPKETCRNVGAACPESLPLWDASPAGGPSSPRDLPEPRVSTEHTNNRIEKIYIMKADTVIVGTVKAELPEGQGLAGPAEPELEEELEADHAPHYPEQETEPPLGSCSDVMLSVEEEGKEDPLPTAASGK
# Columns and labels:
# human CD30 [1] = target: T1, human CD30; assay: cell-based or functional assay
# human CD30 [2] = target: T1, human CD30; assay: Scatchard analysis, 125I-labelled antibody on CD30 positive L540 cells, 4 °C
# Description: (§1) Human or cynomolgus peripheral blood cells were stimulated with 2 μg/ml PHA, 10 μg/ml Con A, and 50 U/ml rIL-2 and cultured in RPMI1640 media containing 10% fetal bovine serum (FBS) at 1×10⁶ cells/ml density for 3 days. On the day of the study, the cells were washed and adjusted to 2×10⁷ cells/m in binding buffer (RPMI1640+10% FBS). As a control, CD30 positive L540 cells (adjusted to 4-8×10⁶ cells/ml) were used in these studies since they express high levels of the antigen. The cells were placed on ice until the initiation of the experiment. Millipore glass fiber filter plates (MAFBN0B50) were coated with 1% nonfat dry milk in water and stored a 4° C. overnight. The plates were washed three times with 0.2 ml of binding buffer. Fifty microliters of buffer alone was added to the maximum binding wells (total binding). Twenty-five microliters of buffer alone was added to the control wells. Varying concentration of ¹²⁵I-anti-CD30 antibody was added to all wells in a volume of 25 μL. Varying concentrations of unlabeled antibody at 300-400 fold excess were added in a volume of 25 μl to control wells (non-specific binding) and 25 μl of CD30 positive L540 cells or stimulated human or cynomolgus peripheral blood cells in binding buffer were added to all wells. The plates were incubated for 2 hours at 200 RPM on a shaker at 4° C. […] The filters were removed and counted in a gamma counter. […]
# human CD30 [3] = target: T1, human CD30; assay: Scatchard analysis, 125I-labelled antibody on PHA/Con A/rIL-2-activated human peripheral blood cells, 4 °C
# Description: as §1
# [4] = target: T2, cynomolgus CD30 on PHA, Con A and rIL-2 …; assay: Scatchard analysis, 125I-labelled antibody on PHA/Con A/rIL-2-activated cynomolgus peripheral blood mononuclear cells, 4 °C
# Description: as §1
"EC50 of ADCC, Karpas cells (human CD30 [1]) [µg/mL]","EC50 of ADCC, L428 cells (human CD30 [1]) [µg/mL]","EC50 of ADCC, L540 cells (human CD30 [1]) [µg/mL]","EC50 of ADCC, L1236 cells (human CD30 [1]) [µg/mL]",Kd (human CD30 [2]) [nM],Kd (human CD30 [3]) [nM],Kd [4] [nM],"% Lysis ratio fucose-:fucose+, ADCC, Karpas cells (human CD30 [1]) [fold]","% Lysis ratio fucose-:fucose+, ADCC, L428 cells (human CD30 [1]) [fold]","% Lysis ratio fucose-:fucose+, ADCC, L540 cells (human CD30 [1]) [fold]","% Lysis ratio fucose-:fucose+, ADCC, L1236 cells (human CD30 [1]) [fold]","EC50 ratio fucose+:fucose-, ADCC, Karpas cells (human CD30 [1]) [fold]","EC50 ratio fucose+:fucose-, ADCC, L428 cells (human CD30 [1]) [fold]","EC50 ratio fucose+:fucose-, ADCC, L540 cells (human CD30 [1]) [fold]","EC50 ratio fucose+:fucose-, ADCC, L1236 cells (human CD30 [1]) [fold]",Binder
0.25,0.1,0.042,1.22,1.37,1.08,0.47,,,,,,,,,"fucosylated 5F11 anti-CD30 fully human monoclonal antibody (expressed in CHO DG44 cells) (antibody, IgG1, V domains shown, It was made in CHO DG44 (FUT8+/+) cells, so the carbohydrate contains fucose; also called fuc-5F11; Anti-CD30 + fucose) VH: QVQLQQWGAGLLKPSETLSLTCAVYGGSFSAYYWSWIRQPPGKGLEWIGDINHGGGTNYNPSLKSRVTISVDTSKNQFSLKLNSVTAADTAVYYCASLTAYWGQGSLVTVSS VL: DIQMTQSPTSLSASVGDRVTITCRASQGISSWLTWYQQKPEKAPKSLIYAASSLQSGVPSRFSGSGSGTDFTLTISSLQPEDFATYYCQQYDSYPITFGQGTRLEIK"
,,,,,,,2.63,2.15,1.61,3.25,7.8,11.1,4.7,27.1,"defucosylated 5F11 anti-CD30 fully human monoclonal antibody (expressed in FUT8-/- Ms704 cells) (antibody, V domains shown) VH: QVQLQQWGAGLLKPSETLSLTCAVYGGSFSAYYWSWIRQPPGKGLEWIGDINHGGGTNYNPSLKSRVTISVDTSKNQFSLKLNSVTAADTAVYYCASLTAYWGQGSLVTVSS VL: DIQMTQSPTSLSASVGDRVTITCRASQGISSWLTWYQQKPEKAPKSLIYAASSLQSGVPSRFSGSGSGTDFTLTISSLQPEDFATYYCQQYDSYPITFGQGTRLEIK"
